B1: Storkhead-box protein 2, residues 64 to 141; numbered along this chain, Q9P2F5 (parent)
chain: SPISQSQFIPLGEILCLAISAMNSARKPVTQEALMEHLTTCFPGVPTPSQEILRHTLNTLVRERKIYPTPDGYFIVTP

± gives the uncertainty stated by the source.

Variants of B1 are the subject of this data set. Briefly: abundance fitness (aPCA) (normalised: wild type 0, dead -1); higher = more abundant; growth selection in yeast, the domain comes from the species named. Conditions: Homo sapiens.
For SPISQSQFIPLGEILCLAISAMNSAIKPVTQEALMEHLTTCFPGVPTPSQEILRHTLNTLVRERKIYPTPDGYFIVTP [R26I], the abundance fitness is -0.199 ± 0.066.
In the case of SPISQSQFIPLGEILCLAISAMNSAYKPVTQEALMEHLTTCFPGVPTPSQEILRHTLNTLVRERKIYPTPDGYFIVTP [R26Y], the abundance fitness is -0.248 ± 0.11.
In the case of SPISQSQFIPLGEILCLAISAMNSAVKPVTQEALMEHLTTCFPGVPTPSQEILRHTLNTLVRERKIYPTPDGYFIVTP [R26V], the abundance fitness is -0.09 ± 0.042.
Take SPISQSQFIPLGEILCLAISAMNSATKPVTQEALMEHLTTCFPGVPTPSQEILRHTLNTLVRERKIYPTPDGYFIVTP [R26T]: the abundance fitness was -0.005 ± 0.077.
For SPISQSQFIPLGEILCLAISAMNSAAKPVTQEALMEHLTTCFPGVPTPSQEILRHTLNTLVRERKIYPTPDGYFIVTP [R26A], the abundance fitness is -0.021 ± 0.048.
The result for SPISQSQFIPLGEILCLAISAMNSAMKPVTQEALMEHLTTCFPGVPTPSQEILRHTLNTLVRERKIYPTPDGYFIVTP [R26M] reads -0.124 ± 0.12; that for SPISQSQFIPLGEILCLAISAMNSAEKPVTQEALMEHLTTCFPGVPTPSQEILRHTLNTLVRERKIYPTPDGYFIVTP [R26E], -0.016 ± 0.092; that for SPISQSQFIPLGEILCLAISAMNSAHKPVTQEALMEHLTTCFPGVPTPSQEILRHTLNTLVRERKIYPTPDGYFIVTP [R26H], -0.09 ± 0.09.
Consider SPISQSQFIPLGEILCLAISAMNSACKPVTQEALMEHLTTCFPGVPTPSQEILRHTLNTLVRERKIYPTPDGYFIVTP [R26C], for which the abundance fitness is -0.115 ± 0.089.
As for SPISQSQFIPLGEILCLAISAMNSANKPVTQEALMEHLTTCFPGVPTPSQEILRHTLNTLVRERKIYPTPDGYFIVTP [R26N], the abundance fitness amounted to 0.023 ± 0.14.
For the variant SPISQSQFIPLGEILCLAISAMNSAWKPVTQEALMEHLTTCFPGVPTPSQEILRHTLNTLVRERKIYPTPDGYFIVTP [R26W], the abundance fitness was -0.134 ± 0.072.
For SPISQSQFIPLGEILCLAISAMNSADKPVTQEALMEHLTTCFPGVPTPSQEILRHTLNTLVRERKIYPTPDGYFIVTP [R26D], the abundance fitness is -0.011 ± 0.083.
Consider SPISQSQFIPLGEILCLAISAMNSALKPVTQEALMEHLTTCFPGVPTPSQEILRHTLNTLVRERKIYPTPDGYFIVTP [R26L], for which the abundance fitness was -0.078 ± 0.044.
For the variant SPISQSQFIPLGEILCLAISAMNSAQKPVTQEALMEHLTTCFPGVPTPSQEILRHTLNTLVRERKIYPTPDGYFIVTP [R26Q], the abundance fitness was -0.018 ± 0.2.
With SPISQSQFIPLGEILCLAISAMNSAFKPVTQEALMEHLTTCFPGVPTPSQEILRHTLNTLVRERKIYPTPDGYFIVTP [R26F], the abundance fitness was -0.089 ± 0.049.
Next, SPISQSQFIPLGEILCLAISAMNSASKPVTQEALMEHLTTCFPGVPTPSQEILRHTLNTLVRERKIYPTPDGYFIVTP [R26S]: -0.04 ± 0.05; SPISQSQFIPLGEILCLAISAMNSAPKPVTQEALMEHLTTCFPGVPTPSQEILRHTLNTLVRERKIYPTPDGYFIVTP [R26P]: -0.195 ± 0.059.
SPISQSQFIPLGEILCLAISAMNSAGKPVTQEALMEHLTTCFPGVPTPSQEILRHTLNTLVRERKIYPTPDGYFIVTP [R26G]: the abundance fitness is -0.009 ± 0.037.
SPISQSQFIPLGEILCLAISAMNSARKWVTQEALMEHLTTCFPGVPTPSQEILRHTLNTLVRERKIYPTPDGYFIVTP [P28W]: the abundance fitness was -0.214 ± 0.064.
Next, SPISQSQFIPLGEILCLAISAMNSARKYVTQEALMEHLTTCFPGVPTPSQEILRHTLNTLVRERKIYPTPDGYFIVTP [P28Y]: -0.032 ± 0.098.
Next, SPISQSQFIPLGEILCLAISAMNSARKFVTQEALMEHLTTCFPGVPTPSQEILRHTLNTLVRERKIYPTPDGYFIVTP [P28F]: -0.187 ± 0.17.
With SPISQSQFIPLGEILCLAISAMNSARKGVTQEALMEHLTTCFPGVPTPSQEILRHTLNTLVRERKIYPTPDGYFIVTP [P28G], the abundance fitness was -0.133 ± 0.037.
Next, SPISQSQFIPLGEILCLAISAMNSARKRVTQEALMEHLTTCFPGVPTPSQEILRHTLNTLVRERKIYPTPDGYFIVTP [P28R]: -0.054 ± 0.037.
The result for SPISQSQFIPLGEILCLAISAMNSARKKVTQEALMEHLTTCFPGVPTPSQEILRHTLNTLVRERKIYPTPDGYFIVTP [P28K] reads -0.076 ± 0.1; that for SPISQSQFIPLGEILCLAISAMNSARKQVTQEALMEHLTTCFPGVPTPSQEILRHTLNTLVRERKIYPTPDGYFIVTP [P28Q], 0.063 ± 0.062.
Next, SPISQSQFIPLGEILCLAISAMNSARKAVTQEALMEHLTTCFPGVPTPSQEILRHTLNTLVRERKIYPTPDGYFIVTP [P28A]: -0.016 ± 0.058; SPISQSQFIPLGEILCLAISAMNSARKIVTQEALMEHLTTCFPGVPTPSQEILRHTLNTLVRERKIYPTPDGYFIVTP [P28I]: -0.091 ± 0.12; SPISQSQFIPLGEILCLAISAMNSARKSVTQEALMEHLTTCFPGVPTPSQEILRHTLNTLVRERKIYPTPDGYFIVTP [P28S]: -0.087 ± 0.047.
As to SPISQSQFIPLGEILCLAISAMNSARKTVTQEALMEHLTTCFPGVPTPSQEILRHTLNTLVRERKIYPTPDGYFIVTP [P28T], the abundance fitness turned out to be 0.009 ± 0.066.
As to SPISQSQFIPLGEILCLAISAMNSARKLVTQEALMEHLTTCFPGVPTPSQEILRHTLNTLVRERKIYPTPDGYFIVTP [P28L], the abundance fitness is -0.2 ± 0.043.
On to SPISQSQFIPLGEILCLAISAMNSARKNVTQEALMEHLTTCFPGVPTPSQEILRHTLNTLVRERKIYPTPDGYFIVTP [P28N], for which the abundance fitness was -0.024 ± 0.13.
In the case of SPISQSQFIPLGEILCLAISAMNSARKHVTQEALMEHLTTCFPGVPTPSQEILRHTLNTLVRERKIYPTPDGYFIVTP [P28H], the abundance fitness is -0.015 ± 0.11.
Next, SPISQSQFIPLGEILCLAISAMNSARKMVTQEALMEHLTTCFPGVPTPSQEILRHTLNTLVRERKIYPTPDGYFIVTP [P28M]: -0.005 ± 0.073.
The result for SPISQSQFIPLGEILCLAISAMNSARKVVTQEALMEHLTTCFPGVPTPSQEILRHTLNTLVRERKIYPTPDGYFIVTP [P28V] reads -0.072 ± 0.048.
The result for SPISQSQFIPLGEILCLAISAMNSARKPDTQEALMEHLTTCFPGVPTPSQEILRHTLNTLVRERKIYPTPDGYFIVTP [V29D] reads -0.928 ± 0.16.

Values taken from the Human Domainome abundance scans (Beltran et al. 2025).
